Results: article PMC1802561 (Nucleic Acids Research, 2006)

Columns and labels:
YoeB-His6 [1] = target: T1, YoeB-His6 (Escherichia coli, UniProt P69348 1-84); assay: EMSA
T1 sequence: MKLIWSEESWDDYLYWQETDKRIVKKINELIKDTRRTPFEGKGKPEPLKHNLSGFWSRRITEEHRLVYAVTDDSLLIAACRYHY

YoeB (native, untagged) = target: T2, YoeB (native, untagged) (Escherichia coli, UniProt P69348 1-84); assay: EMSA
T2 sequence: T1 sequence

[2] = target: T3, YefM (native, intein-cleaved);YoeB (native, untagged) (Escherichia coli;Escherichia coli, UniProt P69346;P69348 1-83;1-84, |); assay: EMSA
T3 sequence 1: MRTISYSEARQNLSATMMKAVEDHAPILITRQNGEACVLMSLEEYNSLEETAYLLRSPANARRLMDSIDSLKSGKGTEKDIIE
T3 sequence 2: T1 sequence

His10-YefM = target: T4, His10-YefM (Escherichia coli, UniProt P69346 1-83); assay: EMSA
T4 sequence: T3 sequence 1

[3] = target: T5, YefM (native, intein-cleaved) (Escherichia coli, UniProt P69346 1-83); assay: EMSA
T5 sequence: T3 sequence 1

YefM-His6 = target: T6, YefM-His6 (Escherichia coli, UniProt P69346 1-83); assay: EMSA
T6 sequence: T3 sequence 1

native YoeB = target: T7, native YoeB (Escherichia coli, UniProt P69348 1-84); assay: native gel or EMSA
T7 sequence: T1 sequence

cross-linking = target: the molecule itself; assay: cross-linking
YoeB-His6 [4] = target: T8, YoeB-His6 (Escherichia coli, UniProt P69348 1-84); assay: cross-linking
T8 sequence: T1 sequence

B1: 99 bp yefM-yoeB promoter-operator (oligos 1/2) (dsDNA)
DNA 1: GTCGAGAATTCTCTACAAACTAATTAATAAATAGTTAATTAACGCTCATCATTGTACAATGAACTGTACAAAAGAGGAGATTGACATGGGATCCAGTGC
DNA 2: GCACTGGATCCCATGTCAATCTCCTCTTTTGTACAGTTCATTGTACAATGATGAGCGTTAATTAACTATTTATTAATTAGTTTGTAGAGAATTCTCGAC
**Q.** Which results are given for B1?
**A.** binding result (YoeB-His6 [1]): no binding; binding result (YoeB (native, untagged)): no binding; binding result [2]: binds; binding result (His10-YefM): binds; binding result [3]: binds; binding result (YefM-His6): binds

B2: native YefM (natural protein)
chain: T3 sequence 1
**Q.** What does the source list for B2?
**A.** binding result (native YoeB): binds; stoichiometry N (cross-linking): 2

B3: YefM of the YefM–YoeB–His6 complex (natural protein)
chain: T3 sequence 1
**Q.** With B3 as the binder, how does the “stoichiometry N” value (cross-linking) read?
**A.** The value was 2.

**Q.** Does B3 bind (YoeB-His6 [4])?
**A.** Result: binds
